B1: EEHEE_rd4_0363 (parent)
chain: VTVDIKGMEYHFDNPEEAKKFAERMAKELGGELKVENGTLKVE

In this series the parent is B1. The series can be described thus: folding stability dG (cDNA display proteolysis); higher = more stable. Conditions: PBS, room temperature.
Take VGVDIKGMEYHFDNPEEAKKFAERMAKELGGELKVENGTLKVE: the “folding stability dG” value is 0.389 kcal/mol.

For VQVDIKGMEYHFDNPEEAKKFAERMAKELGGELKVENGTLKVE, the “folding stability dG” value was determined as 1.03 kcal/mol.

Regarding VWVDIKGMEYHFDNPEEAKKFAERMAKELGGELKVENGTLKVE, the “folding stability dG” value is 2.04 kcal/mol.

For the variant VKVDIKGMEYHFDNPEEAKKFAERMAKELGGELKVENGTLKVE, the “folding stability dG” value was 1.95 kcal/mol.

As to VRVDIKGMEYHFDNPEEAKKFAERMAKELGGELKVENGTLKVE, the “folding stability dG” value worked out at 1.7 kcal/mol.

For VHVDIKGMEYHFDNPEEAKKFAERMAKELGGELKVENGTLKVE, the “folding stability dG” value is 1.26 kcal/mol.

For VIVDIKGMEYHFDNPEEAKKFAERMAKELGGELKVENGTLKVE, the “folding stability dG” value worked out at 2.37 kcal/mol.

As to VYVDIKGMEYHFDNPEEAKKFAERMAKELGGELKVENGTLKVE, the “folding stability dG” value was 1.52 kcal/mol.

For the variant VFVDIKGMEYHFDNPEEAKKFAERMAKELGGELKVENGTLKVE, the “folding stability dG” value is 1.65 kcal/mol.

Regarding VDVDIKGMEYHFDNPEEAKKFAERMAKELGGELKVENGTLKVE, the “folding stability dG” value came to 0.711 kcal/mol.

Regarding VSVDIKGMEYHFDNPEEAKKFAERMAKELGGELKVENGTLKVE, the “folding stability dG” value is 1.31 kcal/mol.

Consider VPVDIKGMEYHFDNPEEAKKFAERMAKELGGELKVENGTLKVE, for which the “folding stability dG” value worked out at 0.448 kcal/mol.

In the case of VMVDIKGMEYHFDNPEEAKKFAERMAKELGGELKVENGTLKVE, the “folding stability dG” value came to 1.71 kcal/mol.

For VAVDIKGMEYHFDNPEEAKKFAERMAKELGGELKVENGTLKVE, the “folding stability dG” value worked out at 1.1 kcal/mol.

As for VEVDIKGMEYHFDNPEEAKKFAERMAKELGGELKVENGTLKVE, the “folding stability dG” value stood at 0.41 kcal/mol.

Take VLVDIKGMEYHFDNPEEAKKFAERMAKELGGELKVENGTLKVE: the “folding stability dG” value worked out at 1.81 kcal/mol.

On to VVVDIKGMEYHFDNPEEAKKFAERMAKELGGELKVENGTLKVE, for which the “folding stability dG” value amounted to 2.21 kcal/mol.

As for VNVDIKGMEYHFDNPEEAKKFAERMAKELGGELKVENGTLKVE, the “folding stability dG” value came to 1.1 kcal/mol.

Regarding VTVDIKAMEYHFDNPEEAKKFAERMAKELGGELKVENGTLKVE, the “folding stability dG” value was found to be 0.278 kcal/mol.

VTVRIKGMEYHFDNPEEAKKFAERMAKELGGELKVENGTLKVE: the “folding stability dG” value was determined as 2.75 kcal/mol.

Take VTVIIKGMEYHFDNPEEAKKFAERMAKELGGELKVENGTLKVE: the “folding stability dG” value amounted to 3.73 kcal/mol.

As to VTVPIKGMEYHFDNPEEAKKFAERMAKELGGELKVENGTLKVE, the “folding stability dG” value came out at 0.415 kcal/mol.

Regarding VTVYIKGMEYHFDNPEEAKKFAERMAKELGGELKVENGTLKVE, the “folding stability dG” value amounted to 3.35 kcal/mol.

VTVKIKGMEYHFDNPEEAKKFAERMAKELGGELKVENGTLKVE: the “folding stability dG” value was 2.77 kcal/mol.

On to VTVEIKGMEYHFDNPEEAKKFAERMAKELGGELKVENGTLKVE, for which the “folding stability dG” value worked out at 2.56 kcal/mol.

VTVFIKGMEYHFDNPEEAKKFAERMAKELGGELKVENGTLKVE: the “folding stability dG” value stood at 3.35 kcal/mol.

VTVHIKGMEYHFDNPEEAKKFAERMAKELGGELKVENGTLKVE: the “folding stability dG” value was found to be 2.91 kcal/mol.

VTVTIKGMEYHFDNPEEAKKFAERMAKELGGELKVENGTLKVE: the “folding stability dG” value amounted to 2.85 kcal/mol.

Turning to VTVMIKGMEYHFDNPEEAKKFAERMAKELGGELKVENGTLKVE, the “folding stability dG” value was 3.14 kcal/mol.

Take VTVWIKGMEYHFDNPEEAKKFAERMAKELGGELKVENGTLKVE: the “folding stability dG” value was 3.59 kcal/mol.

VTVCIKGMEYHFDNPEEAKKFAERMAKELGGELKVENGTLKVE: the “folding stability dG” value amounted to 3.39 kcal/mol.

With VTVQIKGMEYHFDNPEEAKKFAERMAKELGGELKVENGTLKVE, the “folding stability dG” value amounted to 2.75 kcal/mol.

As for VTVVIKGMEYHFDNPEEAKKFAERMAKELGGELKVENGTLKVE, the “folding stability dG” value was 3.47 kcal/mol.

Turning to VTVSIKGMEYHFDNPEEAKKFAERMAKELGGELKVENGTLKVE, the “folding stability dG” value came out at 2.98 kcal/mol.

Take VTVGIKGMEYHFDNPEEAKKFAERMAKELGGELKVENGTLKVE: the “folding stability dG” value was found to be 1.39 kcal/mol.

On to VTVLIKGMEYHFDNPEEAKKFAERMAKELGGELKVENGTLKVE, for which the “folding stability dG” value amounted to 3.5 kcal/mol.

Regarding VTVNIKGMEYHFDNPEEAKKFAERMAKELGGELKVENGTLKVE, the “folding stability dG” value stood at 2.67 kcal/mol.

In the case of VTVAIKGMEYHFDNPEEAKKFAERMAKELGGELKVENGTLKVE, the “folding stability dG” value was 2.45 kcal/mol.

As to VTVDIAGMEYHFDNPEEAKKFAERMAKELGGELKVENGTLKVE, the “folding stability dG” value is 2.53 kcal/mol.

As to VTVDIWGMEYHFDNPEEAKKFAERMAKELGGELKVENGTLKVE, the “folding stability dG” value amounted to 2.62 kcal/mol.

Regarding VTVDIDGMEYHFDNPEEAKKFAERMAKELGGELKVENGTLKVE, the “folding stability dG” value was 2.92 kcal/mol.

Regarding VTVDIVGMEYHFDNPEEAKKFAERMAKELGGELKVENGTLKVE, the “folding stability dG” value worked out at 1.81 kcal/mol.

Turning to VTVDITGMEYHFDNPEEAKKFAERMAKELGGELKVENGTLKVE, the “folding stability dG” value came out at 1.5 kcal/mol.

Consider VTVDIQGMEYHFDNPEEAKKFAERMAKELGGELKVENGTLKVE, for which the “folding stability dG” value was found to be 2.34 kcal/mol.

In the case of VTVDINGMEYHFDNPEEAKKFAERMAKELGGELKVENGTLKVE, the “folding stability dG” value came out at 2.84 kcal/mol.

As for VTVDIFGMEYHFDNPEEAKKFAERMAKELGGELKVENGTLKVE, the “folding stability dG” value stood at 3.4 kcal/mol.

As to VTVDIPGMEYHFDNPEEAKKFAERMAKELGGELKVENGTLKVE, the “folding stability dG” value turned out to be 0.366 kcal/mol.

With VTVDILGMEYHFDNPEEAKKFAERMAKELGGELKVENGTLKVE, the “folding stability dG” value stood at 2.96 kcal/mol.

Turning to VTVDIYGMEYHFDNPEEAKKFAERMAKELGGELKVENGTLKVE, the “folding stability dG” value is 2.87 kcal/mol.

Turning to VTVDICGMEYHFDNPEEAKKFAERMAKELGGELKVENGTLKVE, the “folding stability dG” value came to 3.13 kcal/mol.

Take VTVDIHGMEYHFDNPEEAKKFAERMAKELGGELKVENGTLKVE: the “folding stability dG” value was found to be 2.74 kcal/mol.

Take VTVDISGMEYHFDNPEEAKKFAERMAKELGGELKVENGTLKVE: the “folding stability dG” value is 2.31 kcal/mol.

For VTVDIMGMEYHFDNPEEAKKFAERMAKELGGELKVENGTLKVE, the “folding stability dG” value was 3.32 kcal/mol.

VTVDIEGMEYHFDNPEEAKKFAERMAKELGGELKVENGTLKVE: the “folding stability dG” value is 2.26 kcal/mol.

On to VTVDIRGMEYHFDNPEEAKKFAERMAKELGGELKVENGTLKVE, for which the “folding stability dG” value stood at 2.17 kcal/mol.

VTVDIGGMEYHFDNPEEAKKFAERMAKELGGELKVENGTLKVE: the “folding stability dG” value worked out at 2.68 kcal/mol.

As to VTVDIIGMEYHFDNPEEAKKFAERMAKELGGELKVENGTLKVE, the “folding stability dG” value stood at 1.81 kcal/mol.

VTEDIKGMEYHFDNPEEAKKFAERMAKELGGELKVENGTLKVE: the “folding stability dG” value was -0.171 kcal/mol.

VTPDIKGMEYHFDNPEEAKKFAERMAKELGGELKVENGTLKVE: the “folding stability dG” value turned out to be 0.059 kcal/mol.
